Reference: patent US20070036810A1, “Cyclic amp response element activator proteins and uses related thereto” (priority 2003, published 2007)

Columns and labels:
[1] = tested on: CRE-like element of IL-8 promoter (pCREL-Luc); assay: pCREL-Luc reporter (concatamerized CRE-like site) assay; format: cell-based; settings: minimal promoter carrying concatamerized CRE-like site; data not shown
Source text: The pIL-8Luc reporter was constructed by insertion of the −1491 to +43 region of the human IL-8 gene into pGL3Basic vector (Promega, Inc). PCR was used to generate a wild type minimal IL-8 promoter as well as point mutants. Mutations in AP-1, C/EBP, NF-κB were as described by Wu et al. (Wu et al. J. Biol. Chem., 272:2396-2403 (1997)). The sequence of a putative CRE-like site TGACATAA was mutated to TCGATCAA. Promoter constructs carrying 6 concatamerised copies of CRE-like response element (pCREL-Luc) or 5 copies of CRE-like element TGACACAA found in human PEPCK and CAPL promoters (pCREL2-Luc) were prepared by ligating PCR amplified sequences into pTAL-Luc (BD Biosciences). All techniques were performed using conventional methods.
In order to determine if the “CRE-like element” was directly responsive to CREAP1 or MAP3K11, the ability of both genes to activate a minimal promoter carrying concatamerized CRE-like site (pCREL-Luc) was examined. In addition, we studied the effect of PMA known inducer of AP-1.

GAL4-CREB fusion protein = assay: GAL4-CREB activation assay in HLR cell line; format: cell-based; settings: HLR cell line with integrated pFR-Luc reporter, normalized to pCMV-BD vector
Method: To determine if CREAP proteins can directly activate CREB1 protein, the expression constructs of CREAP1, CREAP2 and CREAP3 were transfected individually or with GAL4-CREB plasmid (Stratagene) into HLR cell line (Stratagene) carrying genomic DNA integrated copies of pFR-Luc reporter. Briefly, HLR cells were maintained per manufacturer's instructions. Selected plasmids and either empty vector (pCMV-BD) or GAL4-CREB plasmid were transfected at 75 ng/well using Fugene6 transfection reagent (Roche) as described above. As a positive control pFC-PKA an expression construct encoding catalytic subunit of protein kinase A (Stratagene) was also co-trasfected with GAL4-CREB. Fold of activation was compared to the reporter's activity measured in the cells transfected with empty vector.
The ability of full length CREAP1, CREAP2 and CREAP3 to induce the activity of GAL4-CREB fusion protein (Stratagene) was tested. The data presented are normalized to the value seen with pCMV-BD vector. […] Note the fold induction obtained with positive control is lower when compared to the data from Table 6 when all the plasmids including the reporter were transiently transfected.

[2] = tested on: minimal promoter linked to multiple copies of CRE; assay: CRE-Luc reporter co-transfection assay with the CREAP gene family; format: cell-based; settings: cotransfection, relative to empty pCMV-SPORT6 vector
Source text: (§1) The entire amino acid sequence for CREAP1 was used in a BLASTP search of a public NCBI database. Initially two public domain cDNAs (XM—117201 and FLJ00364) were identified that have significant homology to the CREAP1 coding region. The nucleotide sequence of XM—117201 was used in a BLASTN search (Altschul S. F. et al., Nucleic Acids Res. 25:3389-3402 (1997)) of a proprietary cDNA library EST database and 4 clones were identified that represent XM—117201 public sequence. All 4 clones were functionally tested upon co-transfection with the CRE-Luc and IL-8p-Luc reporters initially found to be induced by CREAP using methods similar to those disclosed above. Briefly, trypsinized HeLa cells are resuspended in complete growth media at 6×10^4 cells/ml and distributed into white 96-well plates (Costar) in the volume of 100 μl per well. Cells are left overnight in a tissue culture incubator at 37° C. and 5% CO2. pGL3B-IL-8p-Luc reporter plasmid or CRE-Luc reporter (BD Biosciences) as well as tested cDNAs are resuspended in OptiMEM I low serum media (GIBCO BRL) at 25 ng/ml. The reporter plasmids and cDNAs are then distributed into 96-well clean PCR plates (ABGene) at 4 μl/well and 3 μl/well respectively. Mixture containing Fugene 6 reagent (Roche Applied Bioscience) at 1.5 μl per transfection and pRL-SV40 (Promega) plasmid 20 ng per transfection is added in the volume of 10 μl per well of the 96-well PCR plate containing prediluted cDNAs. […]
(§2) The activity of firefly and Renilla luciferase is measured using the DualGlo Luciferase Assay System (Promega) following the protocol supplied by the manufacturer. Briefly, 115 μl of freshly reconstituted luciferase reagent is added to each well of the 96-well tissue culture plates with a Multidrop 384 and, after 15 minutes incubation, luminescence is read on a LUMINOSKAN Ascent Luminometer (Thermo Labsystems) with a 400 msec integration time. Subsequently, 115 μl of Stop-and-Glo reagent is added to each well of the 96-well tissue culture and, after 15 minutes incubation, luminescence is read on a LUMINOSKAN Ascent Luminometer with a 200 msec integration time. The activity of each tested cDNA is measured as a ratio of the corresponding firefly and Renilla luciferase activities.
To investigate this, the ability of CREAP2 and CREAP3 to activate gene expression driven by the IL-8 promoter and a CRE-dependent promoter was tested in co-transfection assays as disclosed above. Briefly, the levels of expression of a luciferase reporter driven by either the IL-8 promoter or a minimal promoter linked to 4 copies of CRE were determined after cotransfection with either an empty pCMV-SPORT6 expression vector or with the same vector carrying a cDNA for CREAP1, CREAP2 or CREAP3. […]

Interleukin-8 promoter = assay: IL-8 promoter luciferase reporter co-transfection assay with the CREAP gene family; format: cell-based, human; settings: cotransfection, relative to empty pCMV-SPORT6 vector
Source text: as §1, with “respectively.” for “respectively. Mixture containing Fugene 6 reagent (Roche Applied Bioscience) at 1.5 μl per transfection and pRL-SV40 (Promega) plasmid 20 ng per transfection is added in the volume of 10 μl per well of the 96-well PCR plate containing prediluted cDNAs.”
as §2, with “activities. […]” for “activities.”

B1: CREAP1: human CRE activating protein 1, 650 amino acids, SEQ ID NO 2; expressed from pCMVSPORT-CREAP1 (protein)
chain: MATSNNPRKFSEKIALHNQKQAEETAAFEEVMKDLSLTRAARLQLQKSQYLQLGPSRGQYYGGSLPNVNQIGSGTMDLPFQPSGFLGEALAAAPVSLTPFQSSGLDTSRTTRHHGLVDRVYRERGRLGSPHRRPLSVDKHGRQADSCPYGTMYLSPPADTSWRRTNSDSALHQSTMTPTQPESFSSGSQDVHQKRVLLLTVPGMEETTSEADKNLSKQAWDTKKTGSRPKSCEVPGINIFPSADQENTTALIPATHNTGGSLPDLTNIHFPSPLPTPLDPEEPTFPALSSSSSTGNLAANLTHLGIGGAGQGMSTPGSSPQHRPAGVSPLSLSTEARRQQASPTLSPLSPITQAVAMDALSLEQQLPYAFFTQAGSQQPPPQPQPPPPPPPASQQPPPPPPPQAPVRLPPGGPLLPSASLTRGPQPPPLAVTVPSSLPQSPPENPGQPSMGIDIASAPALQQYRTSAGSPANQSPTSPVSNQGFSPGSSPQHTSTLGSVFGDAYYEQQMAARQANALSHQLEQFNMMENAISSSSLYSPGSTLNYSQAAMMGLTGSHGSLPDSQQLGYASHSGIPNIILTVTGESPPSLSKELTSSLAGVGDVSFDSDSQFPLDELKIDPLTLDGLHMLNDPDMVLADPATEDTFRMDRL
modifications: human
In the case of B1, the “activation of pCREL-Luc” value [1] is reported as “strongly activated”, the “Fold Induction” value (GAL4-CREB fusion protein) is reported as 6.122 and the “CRE: level of expression of luciferase relative to empty vector” value [2] is reported as 28.6. For the same molecule, the “IL-8: level of expression of luciferase relative to empty vector” value (Interleukin-8 promoter) was 175.8571.
